Results as given in patent US20100330095A1 (U3 PHARMA, published 2010).
Residue numbers refer to the chain shown, from its start. Blank lines part the entries; values can stand above or below the binder they belong to.

What was measured:
human Mer = molecular target: T1, human Mer (human, UniProt Q12866 21-999); assay: flow cytometry, transiently transfected HEK293T cells
T1 construct: whole, on cells; Transiently expressed on HEK293T cells; also called hMer
T1 sequence (looked up): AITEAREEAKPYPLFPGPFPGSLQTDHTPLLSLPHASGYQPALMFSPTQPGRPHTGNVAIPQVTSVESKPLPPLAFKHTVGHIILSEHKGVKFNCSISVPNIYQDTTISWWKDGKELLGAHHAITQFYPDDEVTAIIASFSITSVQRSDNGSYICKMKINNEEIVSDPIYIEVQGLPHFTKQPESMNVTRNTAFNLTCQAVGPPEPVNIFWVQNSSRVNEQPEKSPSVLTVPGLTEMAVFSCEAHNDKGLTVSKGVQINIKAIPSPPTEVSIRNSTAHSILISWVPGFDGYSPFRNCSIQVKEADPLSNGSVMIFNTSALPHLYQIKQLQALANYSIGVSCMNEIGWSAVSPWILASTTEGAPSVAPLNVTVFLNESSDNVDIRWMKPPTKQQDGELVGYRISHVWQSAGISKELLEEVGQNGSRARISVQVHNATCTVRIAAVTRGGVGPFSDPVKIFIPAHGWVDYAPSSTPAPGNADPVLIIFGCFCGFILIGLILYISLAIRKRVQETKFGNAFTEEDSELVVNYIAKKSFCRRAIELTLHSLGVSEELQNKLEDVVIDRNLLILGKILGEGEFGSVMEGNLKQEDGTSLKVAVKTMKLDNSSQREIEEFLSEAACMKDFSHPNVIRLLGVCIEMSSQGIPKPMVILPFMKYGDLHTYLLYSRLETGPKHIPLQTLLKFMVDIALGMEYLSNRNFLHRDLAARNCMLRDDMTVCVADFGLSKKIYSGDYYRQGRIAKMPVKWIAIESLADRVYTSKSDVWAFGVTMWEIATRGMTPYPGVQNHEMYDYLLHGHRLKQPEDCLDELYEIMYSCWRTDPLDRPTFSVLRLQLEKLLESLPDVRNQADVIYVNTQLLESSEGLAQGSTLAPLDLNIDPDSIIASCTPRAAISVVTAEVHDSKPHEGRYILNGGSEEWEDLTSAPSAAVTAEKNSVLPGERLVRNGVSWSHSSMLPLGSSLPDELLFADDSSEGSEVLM
Procedure: (§1) FIG. 3. Flow cytometry analysis of cross-reactivity of rat-anti AXL antibodies with mouse and cynomolgus monkey AXL as well as human Mer and Sky. HEK293T fibroblasts were transiently transfected with pcDNA3, pcDNA3-hAXL, pcDNA3 mAXL, pcDNA3-cyAXL, pcDNA3-hMer, or pcDNA3-hSky. […] See text for details.
(§2) For FACS analysis, 2×10⁵ cells were harvested with 10 mM EDTA in PBS, washed once with FACS buffer (PBS, 3% FCS, 0.4% azide) and seeded on a 96 well round bottom plate. […] After incubation on ice for 1 h, cells were washed twice with chilled FACS buffer and resuspended with PE-conjugated donkey anti-rat (Jackson) secondary antibody diluted 1:50 in FACS buffer (100 μl/well) or PE-conjugated donkey anti-mouse secondary antibody for control. Protected from light, cells were incubated on ice for 30 min, washed twice with FACS buffer and analyzed using an Epics XL-MCL flow cytometer (Beckman Coulter).

cynomolgus monkey AXL = molecular target: T2, cynomolgus monkey AXL (cynomolgus monkey, UniProt P30530 26-894 (human entry)); assay: flow cytometry, transfected HEK293T cells, 10 µg/ml
T2 construct: Cloned from cynomolgus brain cDNA; transiently expressed on HEK293T cells (pcDNA3-cyAXL); also called cyAXL
T2 chain: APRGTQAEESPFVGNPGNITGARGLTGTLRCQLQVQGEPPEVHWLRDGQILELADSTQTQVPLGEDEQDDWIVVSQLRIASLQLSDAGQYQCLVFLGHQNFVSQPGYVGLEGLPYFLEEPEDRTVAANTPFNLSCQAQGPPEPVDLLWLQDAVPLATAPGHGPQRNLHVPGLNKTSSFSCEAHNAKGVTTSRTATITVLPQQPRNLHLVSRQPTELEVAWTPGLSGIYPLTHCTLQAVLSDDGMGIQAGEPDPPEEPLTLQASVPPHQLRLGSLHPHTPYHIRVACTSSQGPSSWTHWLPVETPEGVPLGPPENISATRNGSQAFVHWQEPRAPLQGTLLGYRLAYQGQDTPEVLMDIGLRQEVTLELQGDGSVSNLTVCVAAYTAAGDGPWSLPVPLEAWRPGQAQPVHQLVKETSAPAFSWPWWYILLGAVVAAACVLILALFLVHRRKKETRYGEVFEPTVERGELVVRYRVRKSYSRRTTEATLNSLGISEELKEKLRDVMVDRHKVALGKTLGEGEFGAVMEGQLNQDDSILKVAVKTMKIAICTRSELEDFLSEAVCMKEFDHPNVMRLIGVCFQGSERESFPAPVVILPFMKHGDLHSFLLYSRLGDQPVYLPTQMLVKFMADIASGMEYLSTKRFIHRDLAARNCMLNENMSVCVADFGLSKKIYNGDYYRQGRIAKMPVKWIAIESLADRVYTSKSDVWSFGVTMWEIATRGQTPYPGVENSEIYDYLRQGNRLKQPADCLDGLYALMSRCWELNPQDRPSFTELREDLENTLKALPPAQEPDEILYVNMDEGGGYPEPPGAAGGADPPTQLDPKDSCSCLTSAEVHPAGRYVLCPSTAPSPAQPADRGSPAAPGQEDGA
Procedure: as §1, §2

binding result (human Mer): no binding (tested: 10 µg/ml)
binding result (cynomolgus monkey AXL): binds
B1: I 11B7 (antibody, V domains shown)
VH: EVQLQESGPGLVKPSQSLSLTCSVTGYSITSNYWGWIRKFPGDKMEWMGYITYSGSTSYNPSLKSRISITRDTSKNQFFLQLNSVTSEDTATYYCAITTFYYWGQGVMVTVSS
VL: DIQMTQAPSSLPASLGDRVTITCRASQDIGNYLRWFQQKPGKSPRLMISGATNLAAGVPSRFSGSRSGSDYSLTISSLESEDMADYYCLQSKESPWTFGGGTKLELK
notes: rat hybridoma antibody, antagonistic

binding result (human Mer): no binding (tested: 10 µg/ml)
binding result (cynomolgus monkey AXL): binds
B2: I 10D12 (antibody, V domains shown)
VH: EVQLQESGPGLVKPSQSLSLTCSVTGYSITSNYWGWIRKFPGNKMEWMGYITNSGGTAYNPSLKSRISITRDTSKNQFFLQLNSVIPEDSATYFCSRTPWDWGQGVMVTVSS
VL: B1 VL with T22A, L73R
notes: rat hybridoma antibody, antagonistic; subclass G1

binding result (human Mer): no binding (tested: 10 µg/ml)
binding result (cynomolgus monkey AXL): binds
B3: III 11D5 (antibody, rat IgG2a, V domains shown)
VH: EVQLQESGPGLVKPSQSLSLTCSVTGYSITSNYWGWIRKFPGNKMEWIGHITNSGNTTYNPSLKSRISISRDTSRNQFFLQLNSVTTEDTATYYCAKGAFDYWGQGVMVTVSS
VL: DIQMTQSPSSMSTSLGDRVTITCRASQDIGNYLSWFQQKVGKSPRRMIYGAIKLAVGVPSRFSGSRSGSDYSLTISSLESEDMAIYYCLQYIQFPLTFGSGTKLELK
notes: as for B1
